Source: patent US20220089704A1 (published 2022)

Experiments:
Human tau = Human tau (human, UniProt P10636 1-441); test: direct binding ELISA
Human alpha-synuclein = Human alpha-synuclein (human, UniProt P37840 1-140); test: direct binding ELISA

Sequence of Human tau (P10636 other isoform, or with tags, fused parts or gaps): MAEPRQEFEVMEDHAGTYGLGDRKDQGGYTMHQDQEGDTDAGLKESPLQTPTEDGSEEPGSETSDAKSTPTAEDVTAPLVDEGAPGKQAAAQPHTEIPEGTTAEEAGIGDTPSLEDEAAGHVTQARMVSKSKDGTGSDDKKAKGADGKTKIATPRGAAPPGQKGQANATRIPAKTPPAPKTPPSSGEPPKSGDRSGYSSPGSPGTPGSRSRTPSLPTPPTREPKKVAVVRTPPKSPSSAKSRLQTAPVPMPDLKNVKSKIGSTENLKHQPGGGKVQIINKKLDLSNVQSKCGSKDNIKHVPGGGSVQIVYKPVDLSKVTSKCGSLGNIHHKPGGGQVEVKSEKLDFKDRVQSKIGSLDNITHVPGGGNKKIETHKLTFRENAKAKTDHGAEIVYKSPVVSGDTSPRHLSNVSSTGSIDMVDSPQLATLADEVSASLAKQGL

| EC50 (Human tau) [nM] | EC50 (Human alpha-synuclein) [nM] | Binder |
| --- | --- | --- |
| 0.52 |  | 6C5 hIgG1 (antibody, V domains shown) VH: QVQLVESGGGVVQPGRSLRVSCAASGFTFSSYDMHWVRQAPGKGLEWVAVIWFDGSNEFYADSVKGRFTISRDNSKNTLFLQMNSLRAEDTAVYYCARDLGASVTTSNAENFHHWGQGTLVTVSS VL: SYELTQPPSVSVSPGQTARITCSGDALPKRYVYWYQQKSGQAPVLVIYEDSKRPSGIPETFSGSSSGTMATLTISGAQVEDEADYYCYSTDSNGHHWVFGGGTKLTVLG |
| 0.98 |  | FC5-H62(T33C/A104C)-G4S-6C5 (LC) (bispecific antibody) heavy: not shown light: DVQLVESGGGLVQPGGSLRLSCAASGFKITHYCTGWFRQAPGKEREFVSRITWGGDNTFYSNSVKGRFTISRDNSKNTVYLQMNSLRAEDTAVYYCAAGSTSTCTPLRVDYWGQGTLVTVSSGGGGSSYELTQPPSVSVSPGQTARITCSGDALPKRYVYWYQQKSGQAPVLVIYEDSKRPSGIPETFSGSSSGTMATLTISGAQVEDEADYYCYSTDSNGHHWVFGGGTKLTVLGQPKAAPSVTLFPPSSEELQANKATLVCLISDFYPGAVTVAWKADSSPVKAGVETTTPSKQSNNKYAASSYLSLTPEQWKSHRSYSCQVTHEGSTVEKTVAPTECS |
| 0.74 |  | FC5-H62(T33C/A104C)-G4S-6C5 hIgG1 (HC) (bispecific antibody) heavy: not shown light: SYELTQPPSVSVSPGQTARITCSGDALPKRYVYWYQQKSGQAPVLVIYEDSKRPSGIPETFSGSSSGTMATLTISGAQVEDEADYYCYSTDSNGHHWVFGGGTKLTVLGQPKAAPSVTLFPPSSEELQANKATLVCLISDFYPGAVTVAWKADSSPVKAGVETTTPSKQSNNKYAASSYLSLTPEQWKSHRSYSCQVTHEGSTVEKTVAPTECS |
|  | 2.7 | 12F4 hIgG1 (antibody, V domains shown) VH: EVQLVESGGGLVEPGGSLRLSCAVSGFDFEKAWMSWVRQAPGQGLQWVARIKSTADGGTTSYAAPVEGRFIISRDDSRNMLYLQMNSLKTEDTAVYYCTSAHWGQGTLVTVSS VL: SYELTQPPSVSVSPGQTARITCSGEALPMQFAHWYQQRPGKAPVIVVYKDSERPSGVPERFSGSSSGTTATLTITGVQAEDEADYYCQSPDSTNTYEVFGGGTKLTVLS |
